Data: patent US20160009772A1, “CELL PENETRATING PEPTIDES WHICH BIND IRF5” (priority 2012, published 2016)

B1: FITC-Aha-…-NH2 (SEQ ID NO: 17) (peptide)
peptide: XMIILIISFPKHKDWKVILVK
modifications: N-terminal FITC-Aha (fluorescein isothiocyanate on amino hexanoic acid), C-terminal amide (NH2)
B2: FITC-Aha-…-NH2 (SEQ ID NO: 16) (peptide)
peptide: XIRLQISNPYLKFIPLKRAIWLIK
modifications: N-terminal FITC-Aha (fluorescein isothiocyanate on amino hexanoic acid), C-terminal amide (NH2)

target: Wild type IRF5 (222-467) (human) (UniProt Q13568); experiment: TR-FRET IRF5 dimerization inhibition, WT (222-467), peptide titrated

Question: Which IC50 does the source give for Ac-YLKFIPLKRAIWLIK-NH2 [Ac-…-NH2 (SEQ ID NO: 23), control CPP designed not to bind IRF5] here?
Answer: Its IC50 is greater than 75 µM.

Question: How did the IC50 turn out when B1 was run?
Answer: The IC50 was 5.3 µM.

Question: With Ac-MIILIISFPKHKDWKVILVK-NH2 [Ac-…-NH2 (SEQ ID NO: 14)] as the binder, how does the IC50 read?
Answer: Its IC50 is 18.6 µM.

Question: Ac-KDLMVQWFKDGGPSSGAPPPS-NH2 [Ac-…-NH2 (SEQ ID NO: 8)] was tested. Which IC50 did it give?
Answer: The IC50 was 0.79 µM.

Question: How did the IC50 turn out when B2 was run?
Answer: Its IC50 is 46.5 µM.

Question: Which IC50 does the source give for Ac-PFPPLPIGEEAPKDDMVRFFKDLHQYLNVV-NH2 [Ac-…-NH2 (SEQ ID NO: 10)] here?
Answer: The IC50 was 0.35 µM.

Question: With Ac-IRLQISNPDLKDLMVQWFKDGGPSSGAPPPS-NH2 [Ac-…-NH2 (SEQ ID NO: 9)] as the binder, how does the IC50 read?
Answer: The IC50 was 1.4 µM.

target: IRF5(222-467, S430D), S430D phosphomimetic construct of IRF5 (222-467) (human), Q13568; experiment: not given
Sequence (Q13568 232-477 S440D limits assumed): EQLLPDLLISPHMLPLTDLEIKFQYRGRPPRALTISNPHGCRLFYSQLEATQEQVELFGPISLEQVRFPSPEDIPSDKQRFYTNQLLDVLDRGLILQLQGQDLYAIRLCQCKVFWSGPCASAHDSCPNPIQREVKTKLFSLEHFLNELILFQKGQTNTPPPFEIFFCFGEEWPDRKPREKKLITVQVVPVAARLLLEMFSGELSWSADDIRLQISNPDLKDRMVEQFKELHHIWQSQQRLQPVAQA

Question: For Ac-KDLMVQWFKDGGPSSGAPPPS-NH2 [Ac-…-NH2 (SEQ ID NO: 8)], which IC50 is on record?
Answer: The IC50 was 1680 nM.
